Assay results taken from publication PMC7718258, “A substrate binding model for the KEOPS tRNA modifying complex”.

Columns and labels:
[1] = target: T1, mjCgi121 (Methanocaldococcus jannaschii, UniProt Q57646 1-145); assay: fluorescence polarization; 20 mM HEPES pH 7.5, 100 mM NaCl, 2 mM DTT; filter binding 50 nM 32P-tRNA, 1 h, room temperature; FP 50 nM 647-CCA; NMR 25 C with 10% D2O; details: protein: recombinant; tags: GST removed by TEV; label: 5' Alexa-647; single strand
T1 sequence: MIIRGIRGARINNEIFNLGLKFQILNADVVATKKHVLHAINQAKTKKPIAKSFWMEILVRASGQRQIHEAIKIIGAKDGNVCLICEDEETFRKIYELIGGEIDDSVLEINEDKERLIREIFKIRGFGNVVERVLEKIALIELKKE

[2] = target: TPRKB;PRPK;OSGEP;LAGE3 (Homo sapiens;Homo sapiens;Homo …, UniProt Q9Y3C4;Q96S44;Q9NPF4;Q14657 1-175;1-253;1-335;1-143, |||); assay: as above; details: protein: recombinant;recombinant;recombinant;recombinant; tags: GST removed by TEV;GST-His6 removed by TEV;;His; copies: 1;1;1;1; label: 5' Alexa-647; single strand
[3] = target: T2, mjCgi121;mjBud32 (Methanocaldococcus …, UniProt Q57646;Q58530 1-145;333-535, |); assay: as above; details: protein: recombinant;recombinant; tags: GST removed by TEV;His6 removed by TEV; copies: 1;1; label: 5' Alexa-647; single strand
T2 sequence 1: T1 sequence
T2 sequence 2: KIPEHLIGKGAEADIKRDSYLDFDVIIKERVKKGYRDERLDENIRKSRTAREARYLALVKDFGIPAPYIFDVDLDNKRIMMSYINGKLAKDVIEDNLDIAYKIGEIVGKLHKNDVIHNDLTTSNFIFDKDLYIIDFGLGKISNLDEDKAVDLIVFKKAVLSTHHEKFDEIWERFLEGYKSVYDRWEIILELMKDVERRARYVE

[4] = target: TPRKB (Homo sapiens, UniProt Q9Y3C4 1-175); assay: as above; details: protein: recombinant; tags: GST removed by TEV; label: 5' Alexa-647; single strand
[5] = target: T3, mjCgi121;mjBud32;mjKae1 (Methanocaldococcus …, UniProt Q57646;Q58530;Q58530 1-145;333-535;1-332, ||); assay: as above; details: protein: recombinant;recombinant;recombinant; tags: GST removed by TEV;His6 removed by TEV;GST removed by TEV; copies: 1;1;1; label: 5' Alexa-647; single strand
T3 sequence 1: T1 sequence
T3 sequence 2: T2 sequence 2
T3 sequence 3: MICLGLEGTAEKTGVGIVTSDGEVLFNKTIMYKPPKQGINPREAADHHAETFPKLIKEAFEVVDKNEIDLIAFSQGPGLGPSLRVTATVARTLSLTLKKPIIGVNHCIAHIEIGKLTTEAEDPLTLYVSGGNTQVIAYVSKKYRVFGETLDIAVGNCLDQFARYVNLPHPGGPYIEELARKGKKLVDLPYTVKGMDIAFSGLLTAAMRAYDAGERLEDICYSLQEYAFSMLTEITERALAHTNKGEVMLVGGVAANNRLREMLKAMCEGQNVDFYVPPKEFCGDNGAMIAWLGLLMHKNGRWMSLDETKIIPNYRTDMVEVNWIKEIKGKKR

[6] = target: scQri7 (Saccharomyces cerevisiae, UniProt P43122 30-407); assay: as above; details: protein: recombinant; tags: His6 removed by TEV; label: 5' Alexa-647; single strand
Sequence of scQri7 (P43122 30-407): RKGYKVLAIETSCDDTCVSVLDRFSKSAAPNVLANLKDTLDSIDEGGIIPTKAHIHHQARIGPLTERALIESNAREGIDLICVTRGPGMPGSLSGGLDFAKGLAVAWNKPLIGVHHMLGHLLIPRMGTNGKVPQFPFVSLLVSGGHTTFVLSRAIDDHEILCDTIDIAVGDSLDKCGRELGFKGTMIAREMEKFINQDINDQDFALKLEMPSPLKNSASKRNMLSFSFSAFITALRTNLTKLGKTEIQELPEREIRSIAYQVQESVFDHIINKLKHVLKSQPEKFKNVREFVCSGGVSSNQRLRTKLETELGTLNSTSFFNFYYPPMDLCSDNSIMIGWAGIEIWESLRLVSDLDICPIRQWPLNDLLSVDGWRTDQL

[7] = target: TPRKB;PRPK (Homo sapiens;Homo sapiens, UniProt Q9Y3C4;Q96S44 1-175;1-253, |); assay: as above; details: protein: recombinant;recombinant; tags: GST removed by TEV;GST-His6 removed by TEV; copies: 1;1; label: 5' Alexa-647; single strand
[8] = target: T4, mjKae1 (Methanocaldococcus jannaschii, UniProt Q58530 1-332); assay: as above; details: protein: recombinant; tags: GST removed by TEV; label: 5' Alexa-647; single strand
T4 sequence: T3 sequence 3

[9] = target: T5, mjBud32 (Methanocaldococcus jannaschii, UniProt Q58530 333-535); assay: as above; details: protein: recombinant; tags: His6 removed by TEV; label: 5' Alexa-647; single strand
T5 sequence: T2 sequence 2

[10] = target: T1, mjCgi121; assay: competition; displacement of 32P-tRNA, filter binding, 5 uM protein; 20 mM HEPES pH 7.5, 100 mM NaCl, 2 mM DTT; filter binding 50 nM 32P-tRNA, 1 h, room temperature; FP 50 nM 647-CCA; NMR 25 C with 10% D2O; details: protein: recombinant; tags: GST removed by TEV; single strand

B1: 647-CCA (ssRNA)
RNA: CCGCCA
[1]
  Kd: 730 nM
[2]
  Kd: 4300 nM
[3]
  Kd: 229 nM
[4]
  Kd: 28000 nM
[5]
  Kd: 153 nM
[6]
  binding result: no binding
[7]
  Kd: 450 nM
[8]
  binding result: no binding
[9]
  binding result: no binding

B2: inverted oligo (ssRNA)
RNA: ACCGCCC
[10]
  binding result: no binding

B3: CCA-oligo (ssRNA)
RNA: CCCGCCA
[10]
  binding result: binds
